Here are results for 3 molecules from PMC10163920 (European journal of cell biology, 2022).

Ends that are not written are not given here.

Test in all cases: fluorescence polarisation
Assay [1] has as its target Rabbit skeletal muscle actin (unlabeled actin monomers) (rabbit) (UniProt P68135).
The target of the next assay is profilin-1 (wild-type) (UniProt P07737 1-140).
Assay [2] has as its target profilin-1 H120E (actin-binding impaired control) (UniProt P07737 1-140, H120E).
In assay [3] the target is profilin-1 A20T (ALS-associated variant) (UniProt P07737 1-140, A20T).
Chain of profilin-1 A20T (ALS-associated variant) (P07737 whole entry A20T): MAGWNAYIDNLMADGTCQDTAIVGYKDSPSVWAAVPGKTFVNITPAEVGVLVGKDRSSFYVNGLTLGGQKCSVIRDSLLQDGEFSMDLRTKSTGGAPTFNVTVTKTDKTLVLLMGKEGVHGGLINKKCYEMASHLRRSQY
For assay [4], the target named is profilin-1 C71G (ALS-associated variant) (UniProt P07737 1-140, C71G).
Chain of profilin-1 C71G (ALS-associated variant) (P07737 whole entry C71G): as the sequence (P07737 whole entry A20T) above, with T20A, C71G counted along it
The target of assay [5] is profilin-1 T109M (ALS-associated variant) (UniProt P07737 1-140, T109M).
Chain of profilin-1 T109M (ALS-associated variant) (P07737 whole entry T109M): as the sequence (P07737 whole entry A20T) above, with T20A, T109M counted along it
Assay [6] addresses profilin-1 M114T (ALS-associated variant) (UniProt P07737 1-140, M114T).
The target in assay [7] is profilin-1 E117G (ALS-associated variant) (UniProt P07737 1-140, E117G).
Chain of profilin-1 E117G (ALS-associated variant) (P07737 whole entry E117G): as the sequence (P07737 whole entry A20T) above, with T20A, E117G counted along it
Assay [8] deals with profilin-1 G118V (ALS-associated variant) (UniProt P07737 1-140, G118V).
Chain of profilin-1 G118V (ALS-associated variant) (P07737 whole entry G118V): as the sequence (P07737 whole entry A20T) above, with T20A, G118V counted along it
Assay [9] has as its target profilin-1 R136W (ALS-associated variant) (UniProt P07737 1-140, R136W).
Assay [10] concerns the target profilin-1 Q139L (ALS-associated variant) (UniProt P07737 1-140, Q139L).

Chain of profilin-1 R136W (ALS-associated variant) (P07737 whole entry R136W): as the sequence (P07737 whole entry A20T) above, with T20A, R136W counted along it
Chain of profilin-1 M114T (ALS-associated variant) (P07737 whole entry M114T): as the sequence (P07737 whole entry A20T) above, with T20A, M114T counted along it
Chain of profilin-1 Q139L (ALS-associated variant) (P07737 whole entry Q139L): as the sequence (P07737 whole entry A20T) above, with T20A, Q139L counted along it
Chain of profilin-1 (wild-type) (UniProt P07737 1-140) (P07737 whole entry): as the sequence (P07737 whole entry A20T) above, with T20A counted along it
Chain of profilin-1 H120E (actin-binding impaired control) (P07737 whole entry H120E): as the sequence (P07737 whole entry A20T) above, with T20A, H120E counted along it

The molecule “profilin-1 R88E (actin-binding impaired control) (from UniProt P07737 1-140) (natural protein)” had a Kd in assay [1] of 3720 nM. This lies in the single-digit micromolar range.
In the case of “profilin-1 (wild-type) (from UniProt P07737 1-140) (natural protein; other documents disagree on this pair)”, the Kd in assay [1] turned out to be 99.6 nM.

B1: FITC-mDia1-derived poly-L-proline (PLP) peptide (peptide)
peptide: IPPPPPLPGVASIPPPPPLPG
modifications: also: FITC, position not given here
B1: the Kd with profilin-1 (wild-type) worked out at 2710 nM; in assay [3], 1650 nM; in assay [6] it was 2040 nM; in assay [8], 2090 nM; in assay [10], 3470 nM. In addition, the binding result in [2], in assay [4], in assay [5], in assay [7] and in assay [9] was “binds” each time.
